These results are taken from publication PMC12124957 (Nature chemical biology, 2025).

The series concerns the molecule itself. The experiment in a line: light scattering at 340 nm.

B1: ^ΔCFtsH (T. maritima FtsH variant devoid of the N-terminal TM domain (residues 1–146) and of Cys residues) (domain or fragment, UniProt Q9WZ49 147-610, looked up)
chain: ATMYKPSGNKRVTFKDVGGAEEAIEELKEVVEFLKDPSKFNRIGARMPKGILLVGPPGTGKTLLARAVAGEANVPFFHISGSDFVELFVGVGAARVRDLFAQAKAHAPSIVFIDEIDAVGRHRGAGLGGGHDEREQTLNQLLVEMDGFDSKEGIIVMAATNRPDILDPALLRPGRFDKKIVVDPPDMLGRKKILEIHTRNKPLAEDVNLEIIAKRTPGFVGADLENLVNEAALLAAREGRDKITMKDFEEAIDRVIAGPARKSKLISPKEKRIIAYHEAGHAVVSTVVPNGEPVHRISIIPRGYKALGYTLHLPEEDKYLVSRNELLDKLTALLGGRAAEEVVFGDVTSGAANDIERATEIARNMVSQLGMSEELGPLAWGKEEQEVFLGKEITRLRNYSEEVASKIDEEVKKIVTNSYERAKEIIRKYRKQLDNIVEILLEKETIEGDELRRILSEEFEKVVE
Usually koff stands for the first-order rate constant of dissociation. Lower therefore signals a long-lived complex. For the protein B1, the off-rate constant (koff) was no less than 1.6 s⁻¹.
